Test results: PMC7422833
Each block holds one substance with its values, some of them ahead of it.

Tests used:
Test in all cases: SEC; 200 uL of purified protein on a Superdex 200 10/30 column in TBS with 5 mM EDTA, pH 7.4, 0.3 mL/min; elution at 280 nm compared with molecular weight standards (12.4 to 443 kDa) and with refolded reference preparations
[1] = molecular target: recombinant fragment of human SP-A (rfhSP-A) expressed and isolated as a soluble protein using NT* (human)
[2] = molecular target: recombinant fragment of human SP-D (rfhSP-D) expressed and isolated as a soluble protein using NT* (human)
[3] = molecular target: rfhSP-A refolded using the previous refolding protocol using NTwt (human)
[4] = molecular target: rfhSP-D expressed and purified without an expression tag using the standard rfhSP-D purification protocol (human)

percent of the protein eluting at the volume of the trimer [1]: 24%
stoichiometry N [1]: 3
Substance: recombinant fragment of human SP-A (rfhSP-A) expressed and isolated as a soluble protein using NT* (domain or fragment)

percent of the protein eluting at the volume of the trimer [2]: 88.5%
stoichiometry N [2]: 3
Substance: recombinant fragment of human SP-D (rfhSP-D) expressed and isolated as a soluble protein using NT* (domain or fragment)

stoichiometry N [3]: 3
Substance: rfhSP-A refolded using the previous refolding protocol using NTwt (domain or fragment)

stoichiometry N [4]: 3
Substance: rfhSP-D expressed and purified without an expression tag using the standard rfhSP-D purification protocol (domain or fragment)
